T1: recombinant human CLL1 extracellular domain, His-tagged (CLL1-His protein) (human, UniProt Q5QGZ9 65-265)
T1 construct: ECD made by transient expression in HEK293 (293-F) cells and purified by IMAC; also called recombinant human CLL1 protein; ECD of CLL1; not shown: His tag (protein called CLL1-His, purified by IMAC)
T1 sequence: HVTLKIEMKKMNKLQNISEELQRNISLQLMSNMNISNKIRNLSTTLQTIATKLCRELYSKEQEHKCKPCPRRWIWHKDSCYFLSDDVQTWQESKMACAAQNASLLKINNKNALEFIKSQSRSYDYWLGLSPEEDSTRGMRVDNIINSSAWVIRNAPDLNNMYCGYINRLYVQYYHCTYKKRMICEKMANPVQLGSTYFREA

B1: AS141330 (antibody, V domains shown)
VH: QVKLEQPGGSLRLSCAASGFTFSDYDMTWVRQAPGKGLEWISTITGGGESTYYRDSVKGRATISRDNAKNTLYLQLNSLKTEDTAMYYCARGGGWEYYGMNYWGKGTLVTISS
VL: SSELTQPSAVSVSLGETARITCQGGKVGSNYASWYQQKPGQAPVLVIYGDDSRPSGIPERFSGSSSGGTATLTISGAQAEDEADYYCQSYDSSGYNAVFGGGTHLTVL
notes: Called 'IgG1', from a camel phage library, expressed in IPTG-induced supernatant with a C-terminal His-tag; also called anti-CLL1 IgG1
B2: AS141297 (antibody, V domains shown)
VH: QVQLVQSGGGLVQPGGSLRLSCAASGFTFSSYGMIWVRQAPGKGLEWVSAANSGGGTTYYADSVKGRFTISRDNAKNTLYLQLNSLKTEDTAMYYCVKDLYIDGGTWSGLGLYLEVWGQGTLVTVSS
VL: SYELTQPSAVSVSLGETARITCQGGDFGTYYASWYQQKPGQAPVLVIYEDSERPSGIPERFSGSSSGGTATLTISGAQAEDEADYYCQSADSSVNVVFGGGTHLTVL
notes: as for B1
B3: AS141522 (antibody, V domains shown)
VH: QVQLVQSGGGLVQPGGSLRLSCAASGFTFGDYIMIWVRQAPGKGLEWVSAINSGGDSTYYADSVKGRFTISRDNAKNTLYLQLNSLKTQDTAIYYCAKDREAYYGSFYGGSGFDYWGQGTQVTISS
VL: SSELTQPSAVSVSLGETARITCQGGNVGSSYASWYQQKPGQAPVLVIYEDSERPSGIPERFSGSSSGGTATLTISRAQAEDEADYYCQSADRSGYNAVFGGGTHLTVL
notes: as for B1
B4: AS141641 (antibody, V domains shown)
VH: AVQLVESGGGLVQPGGSLRLSCAASGFTFSGYPMSWVRQAPGKALEWVSTINNGGGSTYYADSVKGRFTISRDNAKNTLYLQLNSLKTEDTAMYYCAKRHIPSSYCSDGYCYAAGEDYGMDYWGKGTLVTISS
VL: SSELTQPSAVSVSLGETARITCQGGNVGSSYASWYQQKPGQAPVLVIYEDSERPSGIPERFSGSSSGGTATLTISGAQAEDEADYYCQSADSSGYNAVFGGGTHLTVL
notes: as for B1
B5: AS141567 (antibody, V domains shown)
VH: QVQLVQSGGGLVQPGGSLRLSCAASGFTFSSYAMSWVRQAPGKGLEWVSAINSGDSSTYYVDSVKGRFTISRDNAKNTLYLQLNSLKTEDTAMYYCAKDRIPGPYSDGGGFLGIVFGYWGQGTQVTISS
VL: SSELTQPSAVSVSLGQTARITCQGGNFGKYYAHWYQQKPGQAPVLVIYEDSERPSGIPERFSGSSSGDTATLTISGAQAEDEGDYYCHSAESSAAVFGGGTHLTVL
notes: as for B1
B6: AS138658 (antibody, V domains shown)
VH: QVQLVQSGGSLRLSCAASGFTFSSYDMSWVRQAPGKGLEWVSTINSGGETTYYRDSVKGRFTISRDNAKNTLYLQLNSLKTEDTAMYYCAKGGGWEYYGMDYWGKGTLVTISS
VL: SYELTQPSAVSVSLGQTARITCQGGNLGSSYAYWYQQKPGQAPVLVIYADDSRPSGIPERFSGSSSGGTATLTISGAQAEDEADYYCQSYDSSSYDIVFGGGTHLTVL
notes: as for B1
B7: AS141286 (antibody, V domains shown)
VH: QVQLVQSGGGLVQPGGSLRLSCAASRFPDGSYYMSWVRQGPGKGLEWVSSIYTGGDSTYYADSVKGRFTISKDNAKNALYLQMNSLKPEDTAVYYCAADPGGRYGPHEYNYWGQGTQVTVSS
VL: SSELTQPSAVSVSLGETARITCQGGNIGSNYANWYQQKPGQAPVLVIYGDDSRPSGIPERFSGSSSGGTATLTISGAQAEDEADYYCQSADSSGYNAVFGGGTHLTVL
notes: as for B1
B8: AS141819 (antibody, V domains shown)
VH: EVQLVQSGGGLVQPGGSLRLSCATSGFTFSNNWMHWVRQAPGKGLEWVSSINTGDGSTSSADSVKGRFTISRDNTKNILYLQMNSLKSEDTALYYCAKELDYELGKGPHEYNYWGQGTQVTVSS
VL: SYELTQPSAVSVSLGETARITCQGGNIGSNYANWYQQKPDQAPVLVIYGDDSRPSGIPERFSGSSSGGTATLTISGAQAEDETDYYCQSADSSGYKAVFGGGTHLTVL
notes: as for B1
B9: AS138943 (antibody, V domains shown)
VH: AVQLVESGGGLVQPGGSLRLSCTASGFNFGLYAMSWVRQAPGKGLEWVSGINGGGGLTYYPDSMKGRFTISRDVAKNTLYLELNSLKIEDTAMYYCAKDPDMWTAFPNALDAWGQGTLVTVSS
VL: SYELTQPSAVSVSLGETARITCQGGNIGINYANWYQQKPGQAPVLVIYGDDRRPSGIPERFSGSISGGTATLTISGAQAEDEADYYCQSADSSPYVVFGGGTHLTVL
notes: as for B1
B10: AS138993 (antibody, V domains shown)
VH: QVQLQESGGDLVQPGGSLRLSCAASGFTFSSYDMTWVRQAPGKGLEWVSTINSGGGVTYYTDSVKGRFTISRDNAKNTLYLQMNSLKPEDTAMYYCAADLSWYHALDAWGQGTLVTVSS
VL: SSELTQPAAVSVSLGETARITCQGGNFGSYYASWYQQKPGQAPVLVIHANDNRPSGIPERFSGSSSGGTVTLTISGAQAEDEADYYCQSYDSSANAVVFGGGTHLTVL
notes: as for B1
B11: AS138628 (antibody, V domains shown)
VH: QVQLVQSGGGLVQPGGSLRLSCASSGFTFSSYTMSWVRQAPGKGLEWVSGFNSYGSTYYADSVKGRFTISRDNAKNTLYLQLNSLKTEDTAMYYCARGLVDFDYWGQGTQVTVSS
VL: QSVLTQPSSVSGTPGQTVTISCTGTSNDVGGYNYVSWYQQLPGTAPKLLIYQVNKRASGIPDRFSGSKSGNTASMTISGLQSADEADYYCASYRSTGNAVFGGGTHLTVL
notes: as for B1
B12: AS141553 (antibody, V domains shown)
VH: QVQLVESGGGLVQPGGSLRLSCAASGFTFSSVDMTWVRQAPGKGLEWVSTINTGSGSTYYADSVKGRFTISRDNAKNTLYLQMNSLKTEDTAVYYCATDLAGGGAWFTAPFHYWGQGTQVTISS
VL: SYELTQPSAVSVSLGETARITCQGGNVGYYYASWYQQKPGQAPVLVIYEDSERPSGIPERFSGSSSGGTATLTISGAQAEDEADYYCQSADSSGYNAAVFGGGTHLTVL
notes: as for B1
B13: AS141701 (antibody, V domains shown)
VH: QVQLVQSGGGLVQPGGSLRLSCAASGFTFSVYAMSWVRQAPGKGLEWVSAIKAANSDGDNTYYVDSVKGRFTISRDNAKNTLYLQLNSLKTEDTAIYYCAKAMYECSSGSWCPLGDALDAWGQGTLVTVSS
VL: SSELTQPSAVSVSLGETARITCQGGNVRSSYVSWYQQKPGQAPVLVIYEDSERPSGIPERFSGSSSGGTATLTISGAQAEDEADYYCQSGDNSAYSAAVFGGGTHLTVL
notes: as for B1

The term Kd denotes the constant that tells how readily two partners part at equilibrium.

For the first experiment, the target named is T1, recombinant human CLL1 extracellular …. Nature of the experiment: SPR (BIACORE T200), supernatants on recombinant human CLL1. Here is the method: (§1) The unique clones were grown in 2YT medium and induced by IPTG for IgG1 expression in the supernatant. The supernatants of unique binders were analyzed for their ability to bind to a CLL1-expressing HEK293/huCLL1 cell line and cancer cell line AMLL193 using a FACS assay. Affinities of selected binders in supernatants to recombinant human and cynomolgus monkey CLL1 proteins were determined by surface plasmon resonance (SPR) on a BIACORE® T200 instrument. The dissociation phase was used to calculate the kd values for each IgG1.
In general terms: In SPR one partner is held on a chip, and binding of the other changes the refractive index at the surface.
B1: the binding result is “binds”.

For the next experiment the target is unchanged. Nature of the experiment: SPR (BIACORE T200), IgG1 on recombinant human CLL1; column KD, unit inferred. On the procedure: as §1
For the molecule B2, the Kd turned out to be 0.54 nM.

As to B3, the Kd stood at 0.37 nM.

With B4, the dissociation constant Kd came out at 0.28 nM.

B5: the Kd turned out to be 2.3 nM. For the molecule B6, the Kd came out at 21 nM. Same read-out and setting: the figure for B7 is 1.2 nM; for B8 it is 11 nM; for B9 it is 39 nM. Turning to B10, the Kd is 13 nM. In the case of B11, the Kd is 43 nM. Regarding B12, the Kd was 3.5 nM. On to B13, for which the dissociation constant (Kd) was found to be 2.8 nM.

(Values after patent US20250082681A1 (NANJING LEGEND BIOTECH, published 2025).)
